Assay results: the DeepSol protein solubility set

Assay: soluble on expression in E. coli; label from the status in PepcDB or PDB records

| Sequence | soluble on expression in E. coli |
| --- | --- |
| MRKTFRQPHALAAMVIAMLMAQLSGCATTSAQTSPTEFGAGLPEAEDHSESAEPQSVEAEVIDERYADVWEKIQHARTIDVHDDAEVRKQRNFFDDKQKFMTQVTQRAEPFLYYIVSQLEARNMPLELALLPIVESGYNPLAQANGPAGLWQMIPATGRNFGLTINSAYDGRKDALASTDAVLDYLQHLYNTLGNDWINAVAGYNSGELVIKAAIDRNKAKGKPTDFWSLNIPARQVQTVPKWLAFIQIIREPSHYNLKVMPIANRPFLERLPAPNGVEISQIANAAGLTKAEFKTYNPGYRQSVIPSKGKYQIALPIENIGHYQENQHKLYAQKRYDSQTYIVKSGDSLGTIAAKFDLSVKELKQANNLTSDRLKIGQELTLLTPMAANDNEPEPVKTKANTDKSSTKANASSTKATSSKSTDKPVAKAKTYKVKSGDSLDKIARKSKVKLADLMKWNQLNAKSIIKPGQELKISELEHHHHHH | soluble |
| MGSDKIHHHHHHAHELEANEKYPGKSVKAQTRKEIVTFFSESLSGKTTTFDAGKPLKLSEVEHYRDVVWQLWKEANDGFKEEKLIALDTLSSASTGYWKLPDSLEPNAVMPYYWGMKGTDEIGNELPLFLYLHGSGPKEREWSTGLNICRNFDDAPSVYFIPQIPNEGEYYRWWQKAKQFAWEKLLRQSLLLGKIDPNRVYVFGISEGGYGSQRLASFYADYWAAAGPMAGGEPLKNAPAENCSNIAFSLRTGDKDTGFYRNTLTGYVREAFDSLAHQHPGYFTHKIELIPGMGHSIDYRPTTPWLKQYVRNPYPKYVSWENFEMDGLYRKGFYNLYVKERSDEEGKSRTYYEMSISGNHISLKVDDVVYEATEKDQRWGIEMKFAKKYAQAHKGKVVIYLCDELVDLTEKVTLTVNGKKVFEGKVKADLKNMVNSCAVFFDPQRLYPAAIEVELK | not soluble |
| GLGDAGSTPTTSAADGVPSDTSLTGSGGLHLPQQLEQYRGDIMDAAKATGVPPSVIAGQIWAESRGQLNAATTNVNGKADAGLMQVNADTFKSLQQQNPGLLGNDVNDSHTNIMAGALYLRDQNKEFGDMGAALRAYNSGPDKVNKADLSDTGGVGGSSYPADVLNFAKIIESGQGNLPA | not soluble |
| MGSDKIHHHHHHMIKFLYFTDTHIRGTAPKNRLDPFVETLKHKLHEVMEIAETEKVDMLLHGGDVFDRPDLSPNVVGQFAQIFRKTSRPIYAIAGNHDTFGHNPETISRTMLGLLHSFGIIHIIDPQTPVLVEKDGVKVQISGQPYHYDIDQRDPKLDYYPVNVHEADVMVHLVHSMLVEKALPEGIPHTLIDHIWGTSADVLLTGHFHGGFGIKQKDGRYICNPGAIARINNHWTELVRTPTVILGTITKDGIDLKERPLQSAKNGEEVLDRSFLEKSINQEEKLHAFIQQVKEHAEFQSLNMNDVINEIAAMSNVEEPVKQEALRRITVIEEAWKGGEHEYD | not soluble |
| MAHHHHHHMSLPASHTTTPATASPEVLLAACTAEVQQLRDALHEVTLRERDGCSGSRGGTGGVAGGALGDVWEGKYLAMIRKNRDLTVQLGTTQQQLAAAQKALQAEQEKTQRLVAAVTVSSLGARGAKAGSKSAAGAAGVDDGCNSNSGSKSGGGSSGSEGAAAASSAAVARVYDKLHQKQLAMAEVQRENVALRSLIQREVGLRDDTKEVNRLLRRATAVSSNGGSAAAAAGGTSASGADGGGWRGRAEEIVLLKSKLKDAQREVEEMAAAQSSSENGTDACTDPLSLPASVRAFLGASGDPAAEARSVVTTTTAQVRRPRRDVDDDARDRLSAMQQQRAAQQRQLAADLAELQQQLNEERMRSSALQARTKTMKSELDTLRSYVDTILEKSSTDDELVEAYKTELQRAHEEARHWRRVAADALKEAGGGKTSAALTVSGVHNGLNNAAAAAVRTAPYRKAAGDEKAVAAGGGDAGNVRGAPLPLPPPQPLTSFSRSLYEWVCQACDEVPEGKEQERTEPAVAASAKQLAAVLRQAFQHLVLVEQHTVAGNDMGHASTDSASSESILLKENAALKTRIRALSELMEKELQAQRVLWATAAAGAGATPSTETKERERQQ | not soluble |
| AKQQKHFVLVHGGCLGAWIWYKLKPLLESAGHKVTAVDLSAAGINPRRLDEIHTFRDYSEPLMEVMASIPPDEKVVLLGHSFGGMSLGLAMETYPEKISVAVFMSAMMPDPNHSLTYPFEKYNEKCPADMMLDSQFSTYGNPENPGMSMILGPQFMALKMFQNCSVEDLELAKMLTRPGSLFFQDLAKAKKFSTERYGSVKRAYIFCNEDKSFPVEFQKWFVESVGADKVKEIKEADAMGMLSQPREVCKCLLDISDS | soluble |
| MGSDKIHHHHHHMAEKQYDFTHVPKRQGNSIKWGVLKEKELPMWIAEMDFKIAPEIMASMEEKLKVAAFGYESVPAEYYKAVADWEEIEHRARPKEDWCVFASGVVPAISAMVRQFTSPGDQILVQEPVYNMFYSVIEGNGRRVISSDLIYENSKYSVNWADLEEKLATPSVRMMVFCNPHNPIGYAWSEEEVKRIAELCAKHQVLLISDEIHGDLVLTDEDITPAFTVDWDAKNWVVSLISPSKTFNLAALHAACAIIPNPDLRARAEESFFLAGIGEPNLLAIPAAIAAYEEGHDWLRELKQVLRDNFAYAREFLAKEVPEVKVLDSNASYLAWVDISALGMNAEDFCKYLREKTGLIISAGNGYRGNGHEFVRINLACPKELVIDGMQRLKQGVLNLNN | not soluble |
| GPLGSPQFMNPAAEAEFNILLATDSYKVTHYKQYPPNTSKVYSYFECREKKTENSKLRKVKYEETVFYGLQYILNKYLKGKVVTKEKIQEAKDVYKEHFQDDVFNEKGWNYILEKYDGHLPIEIKAVPEGFVIPRGNVLFTVENTDPECYWLTNWIETILVQSWYPITVATNSREQKKILAKYLLETSGNLDGLEYKLHDFGYRGVSSQETAGIGASAHLVNFKGTDTVAGLALIKKYYGTKDPVPGYSVPAAEHSTITAWGKDHEKDAFEHIVTQFSSVPVSVVSDSYDIYNACEKIWGEDLRHLIVSRSTQAPLIIRPDSGNPLDTVLKVLEILGKKFPVTENSKGYKLLPPYLRVIQGDGVDINTLQEIVEGMKQKMWSIENIAFGSGGGLLQKLTRDLLNCSFKCSYVVTNGLGINVFKDPVADPNKRSKKGRLSLHRTPAGNFVTLEEGKGDLEEYGQDLLHTVFKNGKVTKSYSFDEIRKNAQLNIELEAAHH | soluble |
| MSLNFLEFEKPIAELEAKIEALRDVSRHGGDSAIDLDKEIEQLEKKSLELKKKIFSDLGAWETAQLARHPLRPYTLDYVQHVFEEFDELAGDRAFADDKAIVGGIARLEGRPVMIIGHQKGRETKEKVRRNFGMPKPEGYRKALRLMEMAERFNMPIITFIDTAGAYPGVGAEERGQSEAIAKNLKVMSGLKVPVICNVVGEGGSGGALAIGVGDYVNMLQYSTYSVISPEGCASILWRDSDKAPQAAEAMGLTAPRLKELELIDEIIEEPLGGAHRDHVKMAENMKATLLRQLEDLEQLDEESLRERRYQRLMNYGYC | not soluble |
| MSLQLDEYLRQLAPSMTQWRRDFHLHAESGWLEFRTASKVADILDGLGYQLALGRDVIDADSRMGLPDEETLARAFERAREQGAPERWLPAFEGGFAGVVATLDTGRPGPTLAFRVDMDALDLNEQHDDSHRPHRDHFASCNAGMMHACGHDGHTAIGLGLAHVLKQYAAQLNGVIKLIFQPAEEGTRGARAMVAAGVVDDVDYFTAIHIGTGVPAGTVVCGGDNFMATTKFDVQFSGVAAHAGGKPEDGRNALLAAAQAALGLHAIPPHSAGASRVNVGVMQAGTGRNVVPSSALLKVETRGESEAINQYVFERAQHVVAGAAAMYEARYELRMMGAATASAPSPAWVDYLREQAARVPGVQQAVDRIAAPAGSEDATLMMARVQARGGLASYMIFGTELSAGHHNEKFDFDESVMAVAVETLARVALNFPWQRGVEGHHHHHH | soluble |
| MSLTAAVRHSDVLVVGAGSAGSVVAERLSMDSSCVVTVLEAGPGLADPGLLAQTANGLQLPIGAGSPLVERYRTRLTDRPVRHLPIVRGATVGGSGAINGGYFCRGLPSDFDRASIPGWAWSDVLEHFRAIETDLDFETPVHGRSGPIPVRRTHEMTGITESFMAAAEDAGFAWIADLNDVGPEMPSGVGAVPLNIVNGVRTSSAVGYLMPALGRPNLTLLARTRAVRLRFSATTAVGVDAIGPGGPVSLSADRIVLCAGAIQSAHLLMLSGVGEEEVLRSAGVKVLMALPVGMGCSDHPEWVMPTNWAVAVDRPVLEVLLSTHDGIEIRPYTGGFVAMTGDGTAGHRDWPHIGVALMQPRARGRITLVSSDPQIPVRIEHRYDSEPADVAALRQGSALAHELCGAATRIGPAVWATSQHLCGSAPMGTDDDPRAVVDPRCRVRGIENLWVIDGSVLPSITSRGPHATIVMLGHRAAEFVQEGHHHHHH | soluble |
| MGSDKIHHHHHHVRCLNEEIARKANREDECKGAFWEGRFKSQALLDEQALLACMMYVDLNPIRAGIADSLQSSDFTSIQERISALKQVNNTIISPQAPVQSAKNKPQTINKSLAKFDAATHSSQQTGIPFHFADYLELIDWTGRTIRHDKKGFIDNQRPKLLNELGIASDAWLSSAKDFRRQYSGISGRWDAMCAFKLQQGGKWCRGKSSCEALHPNQPLG | not soluble |
| MGSDKIHHHHHHMKSIIHSTENNNFYLYDTQRILSMLIHPELKKIHEKSTDINIDAYYLKKYSYLVNHGFFGEAKPFEFKANISENSIKENITQTKVIVFEITDYCNLKCKYCSLGDLYNFSKKESKNINIKYALNFLRYIFNVKHKKTKLTISFFGGEPLVNFPAIQQIIEEAKLLNKNKKLDLMFNMTTNATLIHKYIDFIVENNIELLISFDGNEKAHSYRTYASNNKNSFHDVLMNTDMIKLKHPSYFDKYVNFNAVLNNRNSIKGIYEFIYNRYGKIPRISQLSSDHINLNKKNIFDDIFHSRKISEKEFQKEGSDVLPIVSNRLIPFNESKKFLKHYSLNLYLSNTLYLLYDLIDSFPTGTCLPFQTRIFLNTHNNLLPCEKVSYKNFLGKVNDHVFINIPEIVQRYNSYYVHCKKVCQYCYGGRACSTCLLSLDNLDQLGVEEFVCPDFQNQKTFEDKLNRIFSYLEKCPSEFFQIINHLITE | not soluble |
| MADQYHEPVSELTGKDRDFVRALNSLKEEIEAVAWYHQRVVTTKDETVRKILEHNRDEEMEHAAMLLEWLRRNMPGWDEALRTYLFTDKPITEIEEETSGGSENTGGDLGIRKL | soluble |
| MDKGKGSKRSTPSLRAKKKTGTDRQKPSVKQNASQNSKKSSRQKKTPSVGKEREQATDKKREIEKKPQEKTALDEQQRKAQTETISNLEILPDKNPAKMDDGYEDFGPGAAAR | not soluble |
| MRIRIAHSPDSDDAFMFYPLVKGLIDTEGLEIEHVLADIETLNREALKGTYEVSAISFHAYPYVADKYAVLPSGGSIGEGYGPIVVAREELGTLKGKKIAVPGELTTAFLTLKLYEPDFEHVVIPFDRIIQAVLEGKVDAGLVIHEGQLSYKDYGLKKIVDLGEWWKEKYGLPLPLGCNVVRKDLGREVVKKIERLMRESVEYALKERKRALEYAINYARDLSEDLERTQKFVSMYVNERTVDYGEDGREAVRLLLRLGKERGIIKAEIPEKIFSDELF | soluble |
| MWDLETDRVLNEIKTRNARKVLFQAPEGLKRAVEKEIEFLKTKIDAELMIWGETCFGACDLCDEEVTILGIDLIIHYGHEELSYVHSEIPVVFVHAYFKENEYFLKDVENILEKMENPTVTTTIQFKKALSKFNPVVILGCRAPVDNAENILFVGTGRFHPLMMAYKLKKTVKIYNPITREISEISDQEIKKLIKLRIGRVSKLLLNPPKKIGVVLSTKKGQCRLKSFENVIELLKKNNIEYIPIILNNLSQSYLFYKVDAYVICACPRIVMDDYQNYESTLLTPEELRMYLSNDFEYKFDEILENNFYLEHHHHHH | not soluble |
